We go through 9 molecules from US20190002506A1 (Dana-Farber, published 2019).

For orientation: EC50 (read off the curve) means the midpoint of the concentration-response curve. As usually defined, the Kd is the equilibrium constant for the complex coming apart.

Assay [1] deals with T1, BFL-1ΔC C4S/C19S (human, UniProt Q16548 1-153).
T1 construct: range 1-153; Made by site-directed mutagenesis of BFL-1ΔC; also called His-BFL-1ΔC C4S/C19S; C55-only BFL-1; not shown: N-terminal His tag from the pET19b vector
T1 sequence (looked up): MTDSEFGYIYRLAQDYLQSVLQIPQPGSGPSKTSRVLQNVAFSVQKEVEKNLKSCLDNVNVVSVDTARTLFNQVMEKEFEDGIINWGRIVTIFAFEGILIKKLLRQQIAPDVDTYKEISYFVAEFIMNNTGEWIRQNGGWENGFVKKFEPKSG
Kind of assay: covalent conjugation, 10:1 peptide:protein, reducing denaturing gel, Coomassie. The protocol: Processing for gel electrophoresis and Coomassie staining was performed as above.

For a further assay, the target named is T2, Bfl-1 (Examples 1-4) (UniProt Q16548 1-153, limits assumed).
T2 construct: also called 9×His-tagged Bfl-1
T2 sequence (looked up): T1 sequence (looked up) with S4C, S19C
Kind of assay: fluorescence polarization, FITC-labelled SAHB, protein serially diluted from 1 µM. The protocol: (§1) The solution-state equilibrium binding assay was used to determine binding affinities of the stapled peptides to the anti-apoptotic proteins. Proteins were serially diluted from 1 μM, then combined with FITC-labeled SAHB and polarization measured at 5 min on a microplate reader. We then calculated dissociation constants (KD) by nonlinear regression analysis of dose-response curves.
(In general: Fluorescence polarisation rises when a labelled molecule tumbles more slowly, as on binding a larger partner.)

Another assay has as its target T3, MCL-1 (Examples 1-4) (UniProt Q07820 170-327, limits assumed).
T3 construct: also called MCL-I
Described as above. As for the experimental part:
as §1

Assay [2] deals with T4, BFL-1ΔC (aa 1-153) (human, UniProt Q16548 1-153).
T4 construct: also called wild-type BFL-1ΔC; BFL-1 WT
T4 sequence: T1 sequence (looked up) with S4C, S19C
The experiment in a line: biolayer interferometry (Octet RED384): biotin-PEG-NOXA SAHB on super streptavidin tips, BFL-1ΔC construct in solution. As for the experimental part: (§2) Excess streptavidin was quenched by incubation with 2 μg/mL biocytin. The tips were then washed with kinetics buffer and soaked in a serial dilution of BFL-1ΔC for 10 min to measure association rate, followed by a 15 min incubation in kinetics buffer to measure dissociation rate. Dissociation constants were calculated using Octet Data Analysis version 9.0.
A general note: Biolayer interferometry detects binding as a change in optical thickness at a sensor tip.

Assay [3] deals with T1, BFL-1ΔC C4S/C19S. Described as above. The protocol: as §2
In the next assay the target is T5, BFL-1ΔC C4S/C19S/C55S (human, UniProt Q16548 1-153).
T5 construct: range 1-153; Made by site-directed mutagenesis of BFL-1ΔC; also called BFL-1 with no cysteines; not shown: N-terminal His tag from the pET19b vector
T5 sequence (looked up): T1 sequence (looked up) with C55S
The description is as above. As for the experimental part: as §2

The target of assay [4] is T4, BFL-1ΔC (aa 1-153). The experiment in a line: covalent conjugation with BFL-1 cysteine mutants, gel shift.
Another assay deals with T6, HA-BFL-1ΔC C4S/C19S (human, UniProt Q16548 1-153).
T6 construct: range 1-153; also called expressed HA-BFL-1ΔC C4S/C19S; not shown: HA tag (pCMV plasmid)
T6 sequence (looked up): T1 sequence (looked up)
The experiment in a line: 293T lysates, 10 µM biotinylated peptide, anti-HA and anti-biotin western. The protocol:
For lysate experiments, cells were trypsinized 24 hours post-transfection, washed with PBS, and lysed by incubation with 1% CHAPS lysis buffer (150 mM NaCl, 50 mM Tris pH 7.4, 100 mM DTT). Protein concentration of the soluble fraction was measured using a BCA kit according to manufacturer's instructions (Thermo Scientific). […] Samples were then boiled in LDS buffer and subjected to western analysis using 1:1000 dilutions of HA (Sigma-Aldrich, #12CA5) and biotin (Abcam, #53494) antibodies. […] After 24 h, cells were trypsinized, washed with PBS, lysed in 1% CHAPS buffer, and the supernatant collected for protein concentration determination by BCA kit. […] The mixtures were then subjected to HA or FLAG (Sigma-Aldrich, F7425) immunoprecipitation, followed by western analysis using 1:1000 dilutions of HA, FLAG, biotin, and BID (Santa Cruz sc-11423) antibodies. […] Cells were harvested and lysed as above, and incubated overnight with anti-HA agarose beads (Pierce). The beads were washed 3 times with lysis buffer, eluted by boiling in LDS buffer, and subjected to western analysis with HA and biotin antibodies.

Where a chain is given by its changes, count along the chain named. Names and notes keep the numbering of the source. Numbered stars: 1 amine (or outer) side, 2 acyl side, 3 side chain; on linkers, the order of the positions; unused ones are H or OH. Bridge positions count the residues as written; N and C are the ends. Square brackets hold non-standard residues; d marks the D form. Ends that are not written are not given here. * marks the point of attachment. warhead 3 = D-nipecotic acid acylated with acrylic acid, in place of L21, C=CC(=O)N1CCC[C@@H](C(=O)*)C1; Nip(3R) = O=C([C@@H]1CCCN([*:1])C1)[*:2]; warhead 1 = not defined here; S5 = C=CCCC[C@](C)(N)C(=O)O; Acryloyl = C=CC(=O)*

T3 sequence (Q07820 170-327 limits assumed): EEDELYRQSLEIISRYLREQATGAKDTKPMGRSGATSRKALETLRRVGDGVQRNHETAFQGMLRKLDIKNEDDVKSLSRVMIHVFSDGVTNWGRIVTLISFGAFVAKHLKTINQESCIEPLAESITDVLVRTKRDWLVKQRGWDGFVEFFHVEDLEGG

[(3S)‑1‑acryloylpyrrolidine‑3‑carboxylic acid]IAQELR[S5]IGD[S5]FNAYYARR (staple 8-12, also called BIM SAHBA-WH, warhead 1) [BIM SAHBA bearing warhead 1 (of FIG. 12B)]: the binding result with BFL-1ΔC C4S/C19S [1] was “binds”.

B1: NOXA SAHBA (peptide)
peptide: AELEVECATQLR[S5]FGD[S5]LNFRQKLL
modifications: staple 13-17; also: N-terminus PEG-biotin or FITC depending on assay
notes: Stapled NOXA BH3 peptide (aa 19-43) with native C25; also called WT NOXA SAHB; wild-type NOXA SAHBA
On to B1, for which the “EC50 (read off the curve)” value with Bfl-1 (Examples 1-4) was around 100 nM; with MCL-1 (Examples 1-4), around 200 nM. Besides, the equilibrium dissociation constant (Kd) with BFL-1ΔC (aa 1-153) [2] came to 122 nM; with BFL-1ΔC C4S/C19S [3] it was 165 nM; with BFL-1ΔC C4S/C19S/C55S, 118 nM.

B2: NOXA SAHBA F32Y (peptide)
peptide: AELEVECATQLR[S5]YGD[S5]LNFRQKLL
modifications: staple 13-17; also: FITC-labelled, site not given here
notes: member of the group m25; also called NOXA SAHB F32 variant with tyrosine
For B2, in the assay with Bfl-1 (Examples 1-4), the “EC50 (read off the curve)” value is around 200 nM. For the same molecule, the binding result in the assay with MCL-1 (Examples 1-4) was “no binding (tested: 1e-6 M)”.

B3: NOXA SAHBA C25S (peptide)
peptide: AELEVESATQLR[S5]FGD[S5]LNFRQKLL
modifications: staple 13-17; also: N-terminus PEG-biotin or FITC depending on assay
notes: Stapled NOXA BH3 peptide with C25S; also called NOXA C25S SAHB; NOXA C25 SAHB
Regarding B3, the figures for the Kd with BFL-1ΔC (aa 1-153) [2], with BFL-1ΔC C4S/C19S [3] and in the assay with BFL-1ΔC C4S/C19S/C55S were 46.6 nM, 47.2 nM and 58.2 nM, respectively.

B4: NOXA SAHBA-3 (peptide)
peptide: [warhead 3]EVESATQLR[S5]FGD[S5]LNFRQKLL
modifications: staple 11-15; also: biotinylated form carries C-terminal Lys-biotin
notes: also called NOXA SAHBA-WH with warhead 3; biotinylated NOXA SAHBA-3
B4: the binding result with BFL-1ΔC (aa 1-153) [4], with HA-BFL-1ΔC C4S/C19S and with BFL-1ΔC C4S/C19S [1] was “binds” in each case.

B5: BIM SAHBA-3 (peptide)
peptide: [Nip(3R)](Acryloyl)IAQELR[S5]IGD[S5]FNAYYARR
modifications: staple 8-12
notes: also called BIM SAHBA-WH with warhead 3; biotinylated BIM SAHBA-3
Regarding B5, the binding result with BFL-1ΔC (aa 1-153) [4], with HA-BFL-1ΔC C4S/C19S and with BFL-1ΔC C4S/C19S [1] was “binds” in each case.
Turning to Acryloyl-IAQELR[S5]IGD[S5]FNAYYARR (staple 7-11, also called BIM SAHBA-WH, warhead 8) [BIM SAHBA bearing warhead 8 (of FIG. 12B)], in the assay with BFL-1ΔC C4S/C19S [1], the binding result is listed as “binds”.
Same read-out and setting: then [warhead 1]EVESATQLR[S5]FGD[S5]LNFRQKLL (staple 11-15; reading uncertain, also called NOXA SAHBA-WH, warhead 1) [NOXA SAHBA bearing warhead 1 (of FIG. 12B)], with “binds”; and Acryloyl-EVESATQLR[S5]FGD[S5]LNFRQKLL (staple 10-14, also called NOXA SAHBA-WH, warhead 8) [NOXA SAHBA bearing warhead 8 (of FIG. 12B)], with “binds”.
